Test results as given in patent US20220017612A1 (TILOS THERAPEUTICS, published 2022).
Where a chain is given by its changes, count along the chain named. Several values for one entry are separate records, joined by “and”; a condition that tells them apart may be missing. Equal entries are not always repeated. Blank lines part the entries; values can stand above or below the binder they belong to.

Columns and labels:
[1] = target: T1, human LAP-TGFβ1 overexpressed on cells (human, UniProt P01137 30-390); assay: flow cytometry; black bar HT1080-huB1, grey bar HT1080
T1 construct: HT1080 or P3U1 cells overexpressing wild-type human LAP-TGFβ1; also called HT1080-huB1; HT1080-hβ1
T1 sequence (P01137 30-390): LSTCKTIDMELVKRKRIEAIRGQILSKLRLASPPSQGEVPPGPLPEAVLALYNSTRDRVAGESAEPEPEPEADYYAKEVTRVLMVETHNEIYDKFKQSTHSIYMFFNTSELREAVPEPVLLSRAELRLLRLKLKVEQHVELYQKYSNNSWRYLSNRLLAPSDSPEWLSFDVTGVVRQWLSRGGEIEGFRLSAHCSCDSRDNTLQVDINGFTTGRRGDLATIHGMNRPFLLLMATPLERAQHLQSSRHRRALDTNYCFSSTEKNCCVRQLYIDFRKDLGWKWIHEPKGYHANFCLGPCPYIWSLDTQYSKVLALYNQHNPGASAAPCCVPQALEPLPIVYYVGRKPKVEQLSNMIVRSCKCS

[2] = target: T2, human GARP and human LAP-TGFβ1 co-expressed on P3U1 cells (human, UniProt Q14392 20-662); assay: flow cytometry competition on P3U1 cells with human GARP and LAP-TGFβ1; competitor of biotin-28G11 (5 µg competitor, 0.31 µg biotin-28G11)
T2 construct: whole, on cells; also called P3U1 cells over-expressing human GARP and LAP-TGFβ1
T2 sequence (chain, as listed by the source, chain 1 of 2): as the sequence (P01137 30-390) above
T2 sequence (Q14392 20-662, chain 2 of 2): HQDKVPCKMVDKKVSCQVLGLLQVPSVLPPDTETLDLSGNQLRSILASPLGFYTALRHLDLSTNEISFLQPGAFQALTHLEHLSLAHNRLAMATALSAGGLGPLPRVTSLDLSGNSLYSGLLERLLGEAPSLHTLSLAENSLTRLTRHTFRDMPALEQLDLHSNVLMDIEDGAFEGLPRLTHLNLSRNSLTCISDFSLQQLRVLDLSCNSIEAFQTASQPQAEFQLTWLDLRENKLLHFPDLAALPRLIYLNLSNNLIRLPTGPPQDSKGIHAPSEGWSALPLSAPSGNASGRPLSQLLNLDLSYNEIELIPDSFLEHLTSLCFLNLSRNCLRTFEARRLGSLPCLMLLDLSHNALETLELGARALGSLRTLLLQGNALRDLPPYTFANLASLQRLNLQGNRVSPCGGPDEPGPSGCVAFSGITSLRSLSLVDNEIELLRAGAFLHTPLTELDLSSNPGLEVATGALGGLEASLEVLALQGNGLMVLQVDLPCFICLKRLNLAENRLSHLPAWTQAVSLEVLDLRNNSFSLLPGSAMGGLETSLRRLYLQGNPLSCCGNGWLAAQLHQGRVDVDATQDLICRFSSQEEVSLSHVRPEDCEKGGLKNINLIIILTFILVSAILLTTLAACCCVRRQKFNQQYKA
Description: In the first experiment, the various humanized 28G11 candidates were tested for retention of binding to human LAP-TGFβ1 by competition with biotin-28G11 in a flow cytometry assay.
P3U1 cells over-expressing human GARP and LAP-TGFβ1 were placed in a round-bottom 96-well plate at density of 40,000 cells/well. The cells were washed with FACS buffer (25 mM HEPES, 2 mM EDTA, 2% fetal bovine serum in Hank's Balanced Salt Solution). 50 μL of 1:200 diluted TruStain Mouse FcX (BioLegend) was added to each well, followed by 50 μL of 100 ng/μL of humanized 28G11 construct (H0L0, H0L1, H0L2, H0L3, HILO, H1L1, H1L2, H1L3, H2L0, H2L1, H2L2, H2L3). The antibody was allowed to bind for 10 minutes. 50 μL of 6.2 ng/μL of biotinylated murine hybridoma 28G11_(hyb) was added to each well. The biotinylated antibody was allowed to bind for 10 minutes, and then the cells were washed twice with FACS buffer. The cells were labeled for 15 minutes with allophytocyanin-streptavidin (BioLegend), washed twice with FACS buffer, and analyzed by flow cytometry.

[3] = target: T3, human LAP-TGFβ2 overexpressed on HT1080 cells (human, UniProt P61812 21-414); assay: flow cytometry titration, HT1080-huB2 cells
T3 construct: also called HT1080-huB2
T3 sequence: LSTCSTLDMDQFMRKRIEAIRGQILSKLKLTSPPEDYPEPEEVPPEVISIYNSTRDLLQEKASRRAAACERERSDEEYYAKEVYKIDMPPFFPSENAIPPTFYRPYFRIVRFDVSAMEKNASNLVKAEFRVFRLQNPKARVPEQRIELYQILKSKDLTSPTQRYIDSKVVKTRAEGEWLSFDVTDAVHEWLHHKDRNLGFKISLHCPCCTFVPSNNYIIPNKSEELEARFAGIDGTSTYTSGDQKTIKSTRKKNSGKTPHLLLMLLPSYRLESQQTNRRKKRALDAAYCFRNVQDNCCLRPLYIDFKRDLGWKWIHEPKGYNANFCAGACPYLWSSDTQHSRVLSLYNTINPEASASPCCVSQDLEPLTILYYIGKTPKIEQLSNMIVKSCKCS
Description: (§1) This Example describes the binding of anti-LAP antibodies to LAP-TGFβ isoforms and LAP-TGFβ variants. In addition to antibodies 28G11_hIgG1, 22F9_hIgG1, and 20E6_hIgG1, anti-LAP antibodies 17G8_hIgG1, 24E3_hIgG1, and 2C9_(hyb) were also tested in this experiment. Briefly, 4×10⁵ each of (a) HT1080 cells, (b) HT1080 cells overexpressing human LAP-TGFβ1, (c) HT1080 cells overexpressing human LAP-TGFβ2, (d) HT1080 cells overexpressing human LAP-TGFβ3, (e) HT1080 cells overexpressing murine LAP-TGFβ1, (f) P3U1 cells, (g) P3U1 cells overexpressing LAP-TGFβ1 and GARP, and (h) P3U1 cells overexpressing LAP-TGFβ1 and LRRC33 were cultured in 96-well plates. The plates were centrifuged for 5 min at 1,500 rpm, liquid was removed, and cells were resuspended with 200 μL FACS buffer. The plates were centrifuged again, diluted primary antibody was added to each well, and the plates were incubated on ice for 20 minutes, followed by centrifugation. The cells were resuspended in 200 μL FACS buffer, centrifuged again, and resuspended in 50 μL diluted secondary antibody (Alexa647-anti-Human IgG or APC-anti-Mouse IgG). The plates were incubated on ice for 20 minutes in the dark, washed twice with 200 μL FACS buffer, and cells from each well (in 200 μL FACS buffer) were read on the Attune NXT instrument.

[4] = target: T4, human LAP-TGFβ3 overexpressed on HT1080 cells (human, UniProt P10600 24-412); assay: flow cytometry titration, HT1080-huB3 cells
T4 construct: also called HT1080-huB3
T4 sequence: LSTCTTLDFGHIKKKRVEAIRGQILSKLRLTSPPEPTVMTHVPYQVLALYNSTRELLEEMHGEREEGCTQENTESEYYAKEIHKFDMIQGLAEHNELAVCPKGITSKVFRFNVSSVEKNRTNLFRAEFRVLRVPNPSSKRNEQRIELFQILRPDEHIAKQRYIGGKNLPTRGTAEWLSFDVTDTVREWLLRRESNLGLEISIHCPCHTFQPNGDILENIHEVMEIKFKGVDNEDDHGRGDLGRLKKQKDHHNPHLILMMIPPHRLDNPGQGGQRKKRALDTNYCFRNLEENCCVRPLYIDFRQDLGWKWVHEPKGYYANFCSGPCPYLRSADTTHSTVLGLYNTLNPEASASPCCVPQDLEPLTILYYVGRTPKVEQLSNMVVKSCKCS
Description: as §1

[5] = target: T5, human-chicken LAP-TGFβ1 chimera #2.2 on HT1080 cells (human/chicken chimera, UniProt P01137 30-390); assay: flow cytometry, HT1080 cells; grey bar = no anti-LAP antibody
T5 construct: also called HT1080-ch2.2
T5 sequence (P01137 other isoform, or with tags, fused parts or gaps mutant): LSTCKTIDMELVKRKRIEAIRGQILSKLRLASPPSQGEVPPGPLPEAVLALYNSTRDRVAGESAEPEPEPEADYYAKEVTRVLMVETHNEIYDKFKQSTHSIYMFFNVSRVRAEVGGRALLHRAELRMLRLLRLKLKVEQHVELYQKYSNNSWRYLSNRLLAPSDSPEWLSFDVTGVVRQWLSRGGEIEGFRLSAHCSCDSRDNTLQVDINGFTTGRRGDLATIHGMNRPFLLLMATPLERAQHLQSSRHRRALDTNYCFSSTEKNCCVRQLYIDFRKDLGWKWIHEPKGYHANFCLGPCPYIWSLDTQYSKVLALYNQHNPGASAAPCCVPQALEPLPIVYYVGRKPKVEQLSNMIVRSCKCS
Description: as §1
(§2) Cells were processed for flow cytometry in the same manner described above for the isoform-specific binding experiments.

[6] = target: T6, human LAP-TGFβ1 with K27C and Y75C mutations on HT1080 cells (human, UniProt P01137 30-390); assay: as above
T6 construct: also called closed conformation
T6 sequence (P01137 other isoform, or with tags, fused parts or gaps K27C Y75C K27C Y75C): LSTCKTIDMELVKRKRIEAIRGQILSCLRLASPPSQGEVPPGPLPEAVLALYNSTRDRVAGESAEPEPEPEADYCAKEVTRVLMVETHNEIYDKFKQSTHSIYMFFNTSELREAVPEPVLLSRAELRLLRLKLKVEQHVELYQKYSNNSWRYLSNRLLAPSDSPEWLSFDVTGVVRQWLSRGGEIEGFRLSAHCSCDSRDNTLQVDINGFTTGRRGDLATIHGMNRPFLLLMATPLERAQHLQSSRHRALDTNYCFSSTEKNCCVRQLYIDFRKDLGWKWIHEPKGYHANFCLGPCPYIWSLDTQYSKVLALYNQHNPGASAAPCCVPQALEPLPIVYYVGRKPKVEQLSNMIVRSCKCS
Description: as §1, §2

[7] = target: T7, human LAP-TGFβ1 with a Y74T mutation on HT1080 cells (human, UniProt P01137 30-390); assay: as above
T7 construct: also called HT1080-Y74T; open conformation
T7 sequence (P01137 other isoform, or with tags, fused parts or gaps Y74T Y74T): as the sequence (P01137 other isoform, or with tags, fused parts or gaps K27C Y75C K27C Y75C) above, with C27K, Y74T, C75Y counted along it
Description: as §1, §2

[8] = target: T8, human-chicken LAP-TGFβ1 chimera #2.3 on HT1080 cells (human/chicken chimera, UniProt P01137 30-390); assay: as above
T8 construct: also called HT1080-ch2.3
T8 sequence (P01137 other isoform, or with tags, fused parts or gaps mutant): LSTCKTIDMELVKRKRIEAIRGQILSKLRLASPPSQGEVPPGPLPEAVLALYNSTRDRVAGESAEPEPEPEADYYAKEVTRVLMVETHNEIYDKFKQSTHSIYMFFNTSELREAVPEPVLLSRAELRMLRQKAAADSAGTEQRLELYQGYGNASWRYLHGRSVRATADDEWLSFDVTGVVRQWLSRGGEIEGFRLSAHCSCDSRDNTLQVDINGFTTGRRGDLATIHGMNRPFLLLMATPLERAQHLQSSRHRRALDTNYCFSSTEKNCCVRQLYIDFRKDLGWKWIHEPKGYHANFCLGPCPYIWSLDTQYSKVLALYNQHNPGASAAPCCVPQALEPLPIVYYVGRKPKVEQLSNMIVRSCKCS
Description: as §1, §2

[9] = target: T9, LAP-only variant of human TGFβ1 (empty LAP) on HT1080 cells (human, UniProt P01137 30-277); assay: as above
T9 construct: LAP without the mature cytokine; also called HT1080-emptyLAP; LAP-only construct
T9 sequence (P01137 30-277, change not shown): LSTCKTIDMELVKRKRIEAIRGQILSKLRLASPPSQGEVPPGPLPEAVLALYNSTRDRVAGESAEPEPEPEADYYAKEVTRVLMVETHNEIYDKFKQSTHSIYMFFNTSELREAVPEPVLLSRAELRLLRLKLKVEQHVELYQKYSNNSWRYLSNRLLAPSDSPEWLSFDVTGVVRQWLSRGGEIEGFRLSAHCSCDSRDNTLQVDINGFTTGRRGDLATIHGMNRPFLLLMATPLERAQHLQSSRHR
Description: as §1, §2

[10] = target: murine LAP-TGFβ1 overexpressed on cells (mouse, UniProt P04202 30-390); assay: cell-based or functional assay
Chain of murine LAP-TGFβ1 overexpressed on cells (P04202 30-390): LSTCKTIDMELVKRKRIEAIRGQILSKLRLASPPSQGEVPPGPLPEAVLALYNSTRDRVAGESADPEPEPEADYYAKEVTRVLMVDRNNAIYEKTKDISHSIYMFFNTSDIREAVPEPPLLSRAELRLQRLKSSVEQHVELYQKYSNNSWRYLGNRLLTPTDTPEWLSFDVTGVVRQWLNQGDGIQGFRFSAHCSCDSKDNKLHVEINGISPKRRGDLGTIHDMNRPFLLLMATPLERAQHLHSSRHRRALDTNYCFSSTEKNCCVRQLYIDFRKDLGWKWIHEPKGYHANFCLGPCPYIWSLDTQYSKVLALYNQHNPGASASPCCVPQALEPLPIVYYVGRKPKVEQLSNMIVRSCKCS

[11] = target: T1, human LAP-TGFβ1 overexpressed on cells; assay: cell-based or functional assay
[12] = target: T2, human GARP and human LAP-TGFβ1 …; assay: flow cytometry, P3U1 cells
Description: as §1

[13] = target: T10, mature human TGFβ1 (free TGFβ1, without LAP) (human, UniProt P01137 279-390); assay: TGFβ1 ELISA after pre-incubation of 1000 pg mature TGFβ1 with antibody; loss of signal reflects binding
T10 construct: also called mature TGFβ; free human TGFβ1
T10 sequence (P01137 279-390 limits assumed): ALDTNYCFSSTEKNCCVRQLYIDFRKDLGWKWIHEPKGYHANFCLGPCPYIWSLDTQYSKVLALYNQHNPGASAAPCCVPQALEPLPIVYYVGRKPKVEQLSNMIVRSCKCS
Description: To determine whether anti-LAP antibodies 28G11_hIgG1, 22F9_hIgG1, 20E6_hIgG1, 17G8_hIgG1, and 24E3_hIgG1, bind to free human TGFβ1 (i.e., mature TGFβ1 that lacks LAP), the ability of the antibodies to inhibit an anti-TGFβ ELISA was evaluated. Briefly, mature TGFβ1 (1000 pg) was incubated with the indicated anti-LAP antibodies at 10 μg/mL, an isotype control antibody as a negative control or the commercially available anti-TGFβ antibody 1D11 as a positive control for 10 minutes on ice. For example, the 1D11 antibody is commercially available from any number of sellers, for example Bio x Cell Inc. (West Lebanon, N.H.). Supernatants were assayed in a TGFβ1 ELISA (R&D Systems) according to the manufacturer instructions to measure free TGFβ1. […] Note that Figure and FIG. are used interchangeably in this application.

B1: 28G11_H2L3 (antibody, human IgG1, kappa)
heavy: not shown
light: DIQMTQSPSSLSASVGDRLTISCRASQDISNYLNWYQQKPGKTVKLLIYYTSRLHSGVPSRFSGSGSGTDYTLTISSLQPEDVATYFCQQGDTLPWTFGQGTKLEIKRTVAAPSVFIFPPSDEQLKSGTASVVCLLNNFYPREAKVQWKVDNALQSGNSQESVTEQDSKDSTYSLSSTLTLSKADYEKHKVYACEVTHQGLSSPVTKSFNRGEC
binding result [1]: binds
binding result [2]: binds

B2: 28G11_H2L2 (antibody, human IgG1, kappa)
heavy: not shown
light: B1 light with L19V, S22T
binding result [2]: binds

B3: 28G11_H2L1 (antibody, human IgG1, kappa, V domains shown)
VH: EVQLVESGGGLVQPGGSLRLSCAASGFTFTDYYMSWVRQAPGKGLEWLGFIRNKPNGYTTEYSASVKGRFTISRDNSQSSLYLQMNSLKTEDTAVYYCARYTGGGYFDYWGQGTLLTVSS
VL: DIQMTQSPSSLSASVGDRVTITCRASQDISNYLNWYQQKPGKVPKLLIYYTSRLHSGVPSRFSGSGSGTDYTLTISSLQPEDVATYFCQQGDTLPWTFGQGTKLEIKR
binding result [2]: binds

The next lines start with the values.

binding result [3]: no binding (tested: about 800 ng/well)
binding result [4]: no binding (tested: about 800 ng/well)
binding result [5]: no binding
binding result [6]: binds
binding result [7]: no binding
binding result [8]: binds
binding result [9]: no binding
IC50 of inhibition of TGFβ1 activation [10]: 1.4 µg/mL and 0.59 µg/mL
IC50 of inhibition of TGFβ1 activation [11]: 1 /ml (as printed) and 1.5 ug/ml
binding result [12]: binds
binding result [13]: no binding (tested: 10 µg/mL)
B4: 17G8_hIgG1 (antibody, V domains shown)
VH: EVKLVESGGGLVQPGGSLSLSCAASGFTFTDYYMSWVRQPPGKALEWLGFIRNKANGYTTEYSASVKGRFTISRDNSQSILYLQMNALRAEDSATYYCARYKLGGYFDVWGTGTTVTVSS
VL: DIQMTQTTSSLSASLGDRVTISCRASQDISNYLNWYQQKPDGTVKLLIYYTSRLHSGVPSRFSGSGSGTDYSLTISNLEQEDIATYFCQQGNTLPWTFGGGTKLEIK

binding result [3]: no binding (tested: about 800 ng/well)
binding result [4]: no binding (tested: about 800 ng/well)
binding result [5]: no binding
binding result [6]: binds
binding result [7]: no binding
binding result [8]: binds
binding result [9]: no binding
IC50 of inhibition of TGFβ1 activation [10]: 1.1 µg/mL and 0.76 µg/mL
IC50 of inhibition of TGFβ1 activation [11]: 2.5 µg/mL and 2.6 µg/mL
binding result [12]: binds
binding result [13]: no binding (tested: 10 µg/mL)
B5: 24E3_hIgG1 (antibody, V domains shown)
VH: QAYLQQSGAELVRPGASVKMSCKASGYTFTSYNMHWVKQTPRQGLEWIGAIYPGNGDTSYNPKFKGKATLTVDKSSSTAYMQLSSLTSEDSAVYFCTRWDWGGYFDVWGTGTTVTVSS
VL: B4 VL with N92D, E105G
